# Reference: article doi:10.1101/2024.12.06.627168
# What was measured:
# [1] = target: MYC 304-354 WT (RBRIII) (UniProt P01106-1 304-354); test: fluorescence anisotropy
# [2] = target: MYC 304-354 RBRIIIMUT (UniProt P01106-1 304-354, R316A;K317A;R331A;R334A;R340A;K341A); test: fluorescence anisotropy
# Sequence of MYC 304-354 WT (RBRIII) (P01106 319-369): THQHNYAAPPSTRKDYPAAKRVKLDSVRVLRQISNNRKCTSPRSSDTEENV
binder,measurement,setting,value
GUGCAUGGGCAUGUGUGCUGUGUGUGUGCAGGCGACCGUAAACA (ssRNA) [PTDSS2 RNA oligo],binding result,[1],binds
same,binding result,[2],no binding
